Measurements reported in US20210214444A1 (TAYU HUAXIA BIOTECH MEDICAL GROUP, published 2021).

Target: hPD-L1 (Fortebio Octet assay of Example 3) (human, UniProt Q9NZQ7 19-238, limits assumed)
Experiment: BLI, Fortebio Octet; format not stated

Sequence of hPD-L1 (Fortebio Octet assay of Example 3) (Q9NZQ7 19-238 limits assumed): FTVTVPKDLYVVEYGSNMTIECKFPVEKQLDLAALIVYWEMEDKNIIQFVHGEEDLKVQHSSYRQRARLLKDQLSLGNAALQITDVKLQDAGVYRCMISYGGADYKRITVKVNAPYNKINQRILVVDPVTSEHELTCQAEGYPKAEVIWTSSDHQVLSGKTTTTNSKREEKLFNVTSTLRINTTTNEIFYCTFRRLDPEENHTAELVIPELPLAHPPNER

B1: humanized anti-hPD-L1 antibody variant 2 (antibody, V domains shown)
VH: QVQLVQSGAEVKKPGASVKVSCKASGFNIKDTYMYWVRQAPGQGLEWMGRIDPANDNTKYAQKFQGRVTITADTSTSTAYMELSSLRSEDTAVYYCARAKNLLNYFDYWGQGTLVTVSS
VL: DIQMTQSPSSLSASVGDRVTITCRASQEISGYLSWLQQKPGKAPKRLIYATSTLQSGVPSRFSGSRSGTDYTLTISSLQPEDFATYYCLQYAIYPLTFGQGTKLEIKR
notes: Human IgG1; also called Humanized VH 1 + Humanized VL2; anti-PD-L1 IgG1
  koff: 2.72e-05 s⁻¹
